This assay concerns the target T1, soluble EGFR (sEGFR): amino acids 1-619 of mature human EGFR with (Gly)4Ser linker and (His)6 tag (human, UniProt P00533 25-643, biotinylated with Sulfo-NHS-LC-Biotin (B-sEGFR) in the filter lift and the capture ELISA).
T1 construct: range 25-643; also called B-sEGFR; biotinylated sEGFR
As to the kind of experiment: KinExA; calculated as Kd x kon.

B1: full-length monoclonal antibody VH4.15 (antibody, V domains shown)
VH: QVQLQESGPGLVKPSETLSLTCTVSGFSLTNYGVHWIRQPPGKGLEWIGNIWSGGNTDYNTPFTSRVTISVDTSKNQFSLKLSSVTAADTAVYYCARALDYYDYDYAYWGQGTMVTVSS
VL: EIVLTQSPDFQSVTPKEKVTITCRASYSIGTNIHWYQQKPDQSPKLLIKYASESISGVPSRFSGSGSGTDFTLTINSLEAEDAATYYCQQNNEWPTSFGGGTKVEIK
notes: Full-length antibody with human Fc
By koff is commonly meant the first-order rate constant of dissociation. Take B1: the dissociation rate constant (koff) was 1.46e-06 s⁻¹.

Source of the values: patent publication EP1951759B1 (ELI LILLY AND COMPANY, dated 2010).
